# Measurements: article PMC4159567, “Aggregation-prone c9FTD/ALS poly(GA) RAN-translated proteins cause neurotoxicity by inducing ER stress” (Acta Neuropathologica, 2014)
# B1: recombinant GST-(GA)50 protein (other, human)
# chain: GAGAGAGAGAGAGAGAGAGAGAGAGAGAGAGAGAGAGAGAGAGAGAGAGAGAGAGAGAGAGAGAGAGAGAGAGAGAGAGAGAGAGAGAGAGAGAGAGAGA
# notes: poly(GA) c9RAN dipeptide repeat, 50 repeats; (GA)50 cDNA in pGEX-6P-1 (BamHI/XhoI); RAN-translated from the G4C2 repeat of C9ORF72, not part of the C9ORF72 protein; also called poly(GA); source: E. coli Rosetta(DE3)pLysS, purified (Glutathione Sepharose 4B, eluted with glutathione, dialysed); not shown: GST, N-terminal, kept
# Target: the molecule itself
# Assay: gel and Western blot of high molecular weight species; purified recombinant GST-(GA)50 beside GST alone (Online Resource 1a); samples heated in Laemmli's buffer
protein,measurement,value
B1,binding result,binds
